Earlier results in patent US20230312927A1, “POLY(SARCOSINE) POLYMER EXCIPIENTS” (CALUSA BIO, LLC, priority 2021, published 2023).

Tested on: anti-drug antibodies (ADAs)
Details: share of anti-drug antibodies that are neutralizing; van Schie et al. Ann. Rheum. Dis. 2015

| Substance | ADAs shown to be neutralizing |
| --- | --- |
| infliximab [Remicade] | 90% |
| adalimumab [Humira] | 97% |
